Data as given in US20220265819A1 (GEN2 NEUROSCIENCE, published 2022).
Where no end group is shown, it is not given here.

Columns and labels:
[1] = target: T1, full length recombinant human 2N4R tau (amino acids 1-441) (human, UniProt P10636 1-758); experiment: ELISA, HEK293F supernatant on coated tau
T1 construct: Bought (rPeptide); recombinant, non-phosphorylated; also called recombinant tau
Procedure: (§1) Antigen was removed from wells and the plates were then blocked for 1 hour at RT with 5% dried milk in 1×TBS. Blocking solution was removed. HEK293F cell supernatant (10 μg/mL, to 0.0001 μg/mL in 1% BSA/1×TBS) was added to relevant wells, and plates were incubated for 1 hour at RT with gentle shaking. Plates were then washed four times with TBS/0.1% Tween (TBST). Anti-rabbit IgG-HRP antibody (Sigma. St Louis, Mo., USA), diluted 1:5000 in 5% milk/TBS, was added to each well and plates were incubated for 1 hour at RT with gentle shaking before being washed four times with TBST. 3,3′,5,5′-tetramethylbenzidine (TMB) ELISA solution was added to each well and plates were incubated for 15 mins at RT. An equal volume of 1 M sulfuric acid was added to each well and OD was measured at 450 nm.

Bovine serum albumin [2] = target: T2, Bovine serum albumin (bovine, UniProt P02769 25-607); experiment: ELISA on 1% BSA, HEK293F supernatant, anti-rabbit IgG-HRP, n=1
T2 construct: Negative control antigen in ELISA; also called BSA
T2 sequence (P02769 25-607 limits assumed): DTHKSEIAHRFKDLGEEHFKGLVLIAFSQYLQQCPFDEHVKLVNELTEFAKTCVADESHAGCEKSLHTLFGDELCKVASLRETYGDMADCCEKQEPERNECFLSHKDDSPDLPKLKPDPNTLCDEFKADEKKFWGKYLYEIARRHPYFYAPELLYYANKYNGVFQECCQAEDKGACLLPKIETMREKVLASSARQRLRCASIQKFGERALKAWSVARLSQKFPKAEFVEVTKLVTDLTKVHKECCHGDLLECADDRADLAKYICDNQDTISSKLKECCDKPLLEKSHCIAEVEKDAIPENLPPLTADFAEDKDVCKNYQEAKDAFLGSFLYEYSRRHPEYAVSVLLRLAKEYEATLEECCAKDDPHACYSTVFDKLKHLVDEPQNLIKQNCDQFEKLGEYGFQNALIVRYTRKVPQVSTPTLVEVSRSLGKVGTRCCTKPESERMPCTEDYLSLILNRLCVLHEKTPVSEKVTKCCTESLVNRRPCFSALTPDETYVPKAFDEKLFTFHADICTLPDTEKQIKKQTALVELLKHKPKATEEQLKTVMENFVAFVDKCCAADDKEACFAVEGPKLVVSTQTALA
Procedure: FIG. 9. A panel of anti-tau IgG bind to linear immunogen peptide and full length recombinant 2N4R tau in ELISA format. […] Binding of anti-tau IgG was detected using an HRP-conjugated anti-rabbit secondary antibody and data shown are from a representative experiment (n=1).
as §1

[3] = target: T1, full length recombinant human 2N4R tau …; experiment: ELISA, purified IgG on coated tau, half maximal signal
Procedure: as §1, with “13.1 ELISA analyses: ELISA plates were coated with antigen (full length tau, 100 ng/well; or 1% BSA in 1×TBS) in 1× carbonate-bicarbonate buffer for 1 hour at 37° C. Antigen” for “Antigen”, “1×TBS (200 μl/well).” for “1×TBS.”, “removed, diluted IgG” for “removed. HEK293F cell supernatant”, “(Sigma,” for “(Sigma.”, “TBST. 25 μL” for “TBST.”, “RT, an” for “RT. An”
Data were plotted as log concentration of IgG against ELISA signal (OD) and EC₅₀ values were calculated using a four parameter logistic equation with variable slope using GraphPad Prism (GraphPad Software Inc, La Jolla, Calif., USA).

[4] = target: T3, antigen peptide [C]-SPVVSGDTSPRHLSN-amide (tau 396-410 with N-terminal cysteine) (human); experiment: phage ELISA, phage supernatant 1:25, anti-M13-HRP, n=1
T3 construct: Not phosphorylated; Coated free, or conjugated through the N-terminal Cys to BSA or transferrin (phage ELISA); The N-terminal Cys is not part of tau; also called target peptide; short linear peptide
T3 peptide: CSPVVSGDTSPRHLSN-NH2
From the text: (§2) FIG. 7. A panel of phage display-derived anti-tau scFv bind to linear immunogen peptide and full length 2N4R tau in phage ELISA. Phage expressing scFv clones bind to the short linear peptide (SEQ ID NO: 13) (A) conjugated to BSA (black bars) or transferrin (white bars) and to full length recombinant 2N4R tau (B). […] Binding of phage was detected using an HRP-conjugated anti-alpha-M13 antibody and data shown are from a representative experiment (n=1).
(§3) 10.1 Phage ELISA: Supernatants prepared from bacterial cultures infected with phage displaying scFv were tested for binding to full length recombinant 2N4R tau (100 ng/well), target peptide (SEQ ID NO: 13) conjugated to BSA or transferrin (1 μg/well) or BSA (1% in TBS) using standard methods. Antigen was coated onto ELISA plates, then removed, and plates were blocked for 1 h with 5% dried milk in TBS. Samples were diluted 1:25 in 1% BSA/TBS then added to the ELISA plate for 1 h at room temperature (RT). Plates were then washed ×4 with TBS/0.1% Tween (TBST). Alpha-M13-HRP antibody (Abcam, Cambridge, UK) was added (1:5000 dilution in 5% milk/TBS) and incubated for 1 h at RT before washing ×4. TMB ELISA solution was added to each well for 10 min at RT, followed by 1 M sulphuric acid. OD was then measured at 450 nm.

Bovine serum albumin [5] = target: T2, Bovine serum albumin; experiment: phage ELISA
Procedure: as §3

[6] = target: T1, full length recombinant human 2N4R tau …; experiment: phage ELISA, tau 100 ng/well, phage supernatant 1:25, anti-M13-HRP, n=1
From the text: as §2, §3

T1 sequence (P10636 other isoform, or with tags, fused parts or gaps limits assumed): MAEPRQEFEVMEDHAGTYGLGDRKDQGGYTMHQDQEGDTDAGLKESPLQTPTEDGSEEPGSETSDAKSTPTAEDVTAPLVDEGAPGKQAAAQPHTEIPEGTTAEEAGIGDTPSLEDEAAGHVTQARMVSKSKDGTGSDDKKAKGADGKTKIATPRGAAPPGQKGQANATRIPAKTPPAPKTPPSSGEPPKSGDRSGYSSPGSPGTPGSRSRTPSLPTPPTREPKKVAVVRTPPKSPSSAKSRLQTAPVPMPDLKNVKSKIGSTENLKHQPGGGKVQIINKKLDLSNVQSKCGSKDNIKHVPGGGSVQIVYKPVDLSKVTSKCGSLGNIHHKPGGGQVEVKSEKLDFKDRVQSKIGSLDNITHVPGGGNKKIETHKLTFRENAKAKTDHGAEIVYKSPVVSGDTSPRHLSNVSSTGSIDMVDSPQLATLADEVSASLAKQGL

B1: Clone 1 rabbit monoclonal IgG (antibody, V domains shown)
VH: QSLEESGGGLVKPGGTLTLTCTVSGFSLNNYDMSWVRQAPGKGLEWIGTVSTTYRRYYASWAKGRFTISKTSSTTVDLKMTSLTTEDTATYFCAASGIWGPGTLVTVSL
VL: AQVLTQTTSPVSAAVGGTVTINCQSSQRVYSNYLAWYQQKPGQPPKRLIFLASTLESGVPSRFSGSGSGTQFTLTISDLECDDAATYYCAGTYTGSIWAFGGGTEVVVKG
notes: Rabbit IgG expressed in HEK293F (pRab293); also called P1-D4; #28
[1]
  OD (ELISA): 0.3 OD
Bovine serum albumin [2]
  binding result: no binding (tested: supernatant 1:50)
[3]
  EC50: 0.73 nM

B2: Clone 11 human scFv (phage displayed) (scFv, V domains shown)
VH: QVQLQQWGGGLVKPSETLSLTCGVSGGSFNDYYWTWIRQPQGKGLEWIGEINHVGSSRYNPSLGSRVTMSVDTSKSQFSLTLTAVTAADTAIYYCTRGRKTRRVKFFSRYSRDWFDPWGQGSRVTVSS
VL: VMTQSPATLSVSPGERATLSCRASQSVSSNLAWYQQKPGQAPRLLIYGASSRATGIPDRFSGSGSGTDFTLTISRLEPEDFATYYCQQLNSYPFTFGPGTKVDIK
notes: also called rx7; C6
[4]
  binding result: binds
Bovine serum albumin [5]
  binding result: no binding (tested: 1:25 phage supernatant)
[6]
  binding result: binds

B3: Clone 12 human scFv (phage displayed) (scFv, V domains shown)
VH: QVQLQQWGGGLVKPSETLSLTCGVSGGSFNDYYWTWIRQPQGKGLEWIGEINHVGSSRYNPSLGSRVTMSVDTSKSQFSLTLTAVTAADTAIYYCTRGRKTRRVKFFSRYSRDWFDPWGQGSRVTVSS
VL: MTQSPSSLSASVGDRVTITCRASQGISNYLAWYQQKPGKVPKLLIYAASTLQSGVPSRFSGSGSGTDFTLTISSLQPEDVATYYCQKYNSAPFTFGPGTKVDIK
notes: also called rx8; H11
[4]
  binding result: binds
Bovine serum albumin [5]
  binding result: no binding (tested: 1:25 phage supernatant)
[6]
  binding result: binds

B4: Clone 9 human scFv (phage displayed) (scFv, V domains shown)
VH: VQLVESGGGFVQPGGSLRLSCAASGFTFTDYGIHWVRQAPGKGLEWVAVISHDGSHKYYSDSVKGRSTISRDSSDNTVSLQLDGLRADDTALYYCAKDLPQTGALDFWGRGTLITVSS
VL: MTQSPSSLSASVGDRVTITCQASQDISNYLNWYQQKPGKAPKLLIYDASNLETGVPSRFSGSGSGTDFTFTISSLQPEDFATYYCQQANSFPITFGQGTRLEIK
notes: also called rx2; E5
[4]
  binding result: binds
Bovine serum albumin [5]
  binding result: no binding (tested: 1:25 phage supernatant)
[6]
  binding result: binds
